T1: human interleukin 3 (IL3), expressed on microarray cells (human, UniProt P08700 20-152)
T1 construct: also called hIL3
T1 sequence: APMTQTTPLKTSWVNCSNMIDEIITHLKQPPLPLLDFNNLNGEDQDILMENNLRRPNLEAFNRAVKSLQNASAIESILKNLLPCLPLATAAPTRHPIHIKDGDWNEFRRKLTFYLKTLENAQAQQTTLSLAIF

T2: mouse LRP6-E1E2 (N-half, AA 20-628) tagged with Fc (mouse IgG2a) (mouse, UniProt O88572 20-628)
T2 construct: not shown: mouse IgG2a Fc
T2 sequence: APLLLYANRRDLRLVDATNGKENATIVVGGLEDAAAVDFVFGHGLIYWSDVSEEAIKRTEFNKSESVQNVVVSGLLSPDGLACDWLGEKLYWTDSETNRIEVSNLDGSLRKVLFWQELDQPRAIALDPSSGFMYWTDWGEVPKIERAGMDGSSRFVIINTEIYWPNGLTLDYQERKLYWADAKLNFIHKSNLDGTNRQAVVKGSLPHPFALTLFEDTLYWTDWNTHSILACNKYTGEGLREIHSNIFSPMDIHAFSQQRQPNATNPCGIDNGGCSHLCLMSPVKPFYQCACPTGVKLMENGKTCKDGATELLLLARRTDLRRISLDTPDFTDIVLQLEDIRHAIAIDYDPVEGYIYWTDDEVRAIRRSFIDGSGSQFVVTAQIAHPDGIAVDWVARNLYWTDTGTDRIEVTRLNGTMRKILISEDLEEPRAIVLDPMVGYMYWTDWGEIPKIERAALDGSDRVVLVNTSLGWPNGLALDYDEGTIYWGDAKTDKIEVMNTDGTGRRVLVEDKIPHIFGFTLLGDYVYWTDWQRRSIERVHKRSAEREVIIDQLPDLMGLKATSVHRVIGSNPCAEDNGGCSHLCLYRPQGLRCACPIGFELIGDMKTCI

T3: mouse LRP6-E3E4 (C-half, AA 629-1244) tagged with Fc (mouse IgG2a) (mouse, UniProt O88572 629-1244)
T3 construct: not shown: mouse IgG2a Fc
T3 sequence: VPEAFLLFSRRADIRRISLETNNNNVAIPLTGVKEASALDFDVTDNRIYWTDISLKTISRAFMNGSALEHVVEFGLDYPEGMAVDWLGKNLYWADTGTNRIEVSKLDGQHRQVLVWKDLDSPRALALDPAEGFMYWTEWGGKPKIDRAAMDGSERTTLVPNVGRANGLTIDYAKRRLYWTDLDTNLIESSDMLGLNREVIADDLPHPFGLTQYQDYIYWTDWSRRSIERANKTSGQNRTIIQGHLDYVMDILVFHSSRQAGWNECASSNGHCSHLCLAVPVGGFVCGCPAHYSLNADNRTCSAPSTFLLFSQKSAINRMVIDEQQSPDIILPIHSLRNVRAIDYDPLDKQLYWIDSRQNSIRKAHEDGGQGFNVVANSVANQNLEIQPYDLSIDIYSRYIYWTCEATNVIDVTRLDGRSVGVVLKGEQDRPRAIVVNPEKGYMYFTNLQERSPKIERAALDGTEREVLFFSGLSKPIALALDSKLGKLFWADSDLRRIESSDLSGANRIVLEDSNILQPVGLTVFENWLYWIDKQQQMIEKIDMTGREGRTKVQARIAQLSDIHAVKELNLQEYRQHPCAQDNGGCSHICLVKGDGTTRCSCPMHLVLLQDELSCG

T4: human LRP6 extracellular domain (AA 20-1368) tagged with Fc (human IgG1) (human, UniProt O75581 20-1368)
T4 construct: also called human LRP6-Fc; complete human LRP6 extracellular domain; not shown: human IgG1 Fc
T4 sequence: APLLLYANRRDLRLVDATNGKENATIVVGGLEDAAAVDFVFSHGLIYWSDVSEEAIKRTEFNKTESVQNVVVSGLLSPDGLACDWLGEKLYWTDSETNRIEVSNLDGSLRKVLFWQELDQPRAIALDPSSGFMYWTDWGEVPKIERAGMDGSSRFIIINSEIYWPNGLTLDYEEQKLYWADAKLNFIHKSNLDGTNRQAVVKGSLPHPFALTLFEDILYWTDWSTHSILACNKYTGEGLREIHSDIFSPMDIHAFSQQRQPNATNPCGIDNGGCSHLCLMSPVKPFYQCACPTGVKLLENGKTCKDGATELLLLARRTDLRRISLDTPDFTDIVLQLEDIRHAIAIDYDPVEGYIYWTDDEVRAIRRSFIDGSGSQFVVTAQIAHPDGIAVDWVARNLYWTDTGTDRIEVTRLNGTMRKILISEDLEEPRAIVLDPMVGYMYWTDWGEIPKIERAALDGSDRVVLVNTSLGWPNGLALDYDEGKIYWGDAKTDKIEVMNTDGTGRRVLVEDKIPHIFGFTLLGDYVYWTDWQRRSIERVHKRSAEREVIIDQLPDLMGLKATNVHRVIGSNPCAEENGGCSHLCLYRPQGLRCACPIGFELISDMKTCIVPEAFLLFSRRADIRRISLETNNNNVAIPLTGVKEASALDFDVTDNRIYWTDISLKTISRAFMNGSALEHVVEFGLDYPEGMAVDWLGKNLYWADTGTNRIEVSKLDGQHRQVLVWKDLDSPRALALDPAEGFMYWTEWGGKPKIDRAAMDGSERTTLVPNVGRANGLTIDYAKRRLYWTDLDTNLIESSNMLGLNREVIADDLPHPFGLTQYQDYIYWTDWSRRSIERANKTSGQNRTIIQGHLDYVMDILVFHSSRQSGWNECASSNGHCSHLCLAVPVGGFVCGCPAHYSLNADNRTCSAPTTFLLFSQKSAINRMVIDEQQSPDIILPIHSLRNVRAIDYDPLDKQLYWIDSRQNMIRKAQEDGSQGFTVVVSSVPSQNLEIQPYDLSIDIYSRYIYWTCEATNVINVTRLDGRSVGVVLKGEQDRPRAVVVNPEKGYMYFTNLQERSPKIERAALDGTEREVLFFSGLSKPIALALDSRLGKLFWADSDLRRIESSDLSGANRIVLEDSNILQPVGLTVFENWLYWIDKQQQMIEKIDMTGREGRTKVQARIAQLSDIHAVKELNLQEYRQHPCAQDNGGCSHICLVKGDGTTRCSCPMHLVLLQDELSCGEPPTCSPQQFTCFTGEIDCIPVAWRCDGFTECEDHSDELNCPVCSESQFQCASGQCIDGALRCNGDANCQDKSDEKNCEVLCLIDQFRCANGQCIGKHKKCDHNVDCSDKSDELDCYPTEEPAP

B1: AAV.CAP-Mac (other)
chain: MAADGYLPDWLEDNLSEGIREWWALKPGAPQPKANQQHQDNARGLVLPGYKYLGPGNGLDKGEPVNAADAAALEHDKAYDQQLKAGDNPYLKYNHADAEFQERLKEDTSFGGNLGRAVFQAKKRLLEPLGLVEEAAKTAPGKKRPVEQSPQEPDSSAGIGKSGAQPAKKRLNFGQTGDTESVPDPQPIGEPPAAPSGVGSLTMASGGGAPVADNNEGADGVGSSSGNWHCDSQWLGDRVITTSTRTWALPTYNNHLYKQISNSTSGGSSNDNAYFGYSTPWGYFDFNRFHCHFSPRDWQRLINNNWGFRPKRLNFKLFNIQVKEVTDNNGVKTIANNLTSTVQVFTDSDYQLPYVLGSAHEGCLPPFPADVFMIPQYGYLTLNDGSQAVGRSSFYCLEYFPSQMLRTGNNFQFSYEFENVPFHSSYAHSQSLDRLMNPLIDQYLYYLSRTINGSGQNQQTLKFSVAGPSNMAVQGRNYIPGPSYRQQRVSTTVTQNNNSEFAWPGASSWALNGRNSLMNPGPAMASHKEGEDRFFPLSGSLIFGKQGTGRDNVDADKVMITNEEEIKTTNPVATESYGQVATNHQSAQLNTTKPIAQAQTGWVQNQGILPGMVWQDRDVYLQGPIWAKIPHTDGNFHPSPLMGGFGMKHPPPQILIKNTPVPADPPTAFNKDKLNSFITQYSTGQVSVEIEWELQKENSKRWNPEIQYTSNYYKSNNVEFAVNTEGVYSEPRPIGTRYLTRNL
notes: also called CAP-C1
B2: AAV9-X1.1 (other)
chain: MAADGYLPDWLEDNLSEGIREWWALKPGAPQPKANQQHQDNARGLVLPGYKYLGPGNGLDKGEPVNAADAAALEHDKAYDQQLKAGDNPYLKYNHADAEFQERLKEDTSFGGNLGRAVFQAKKRLLEPLGLVEEAAKTAPGKKRPVEQSPQEPDSSAGIGKSGAQPAKKRLNFGQTGDTESVPDPQPIGEPPAAPSGVGSLTMASGGGAPVADNNEGADGVGSSSGNWHCDSQWLGDRVITTSTRTWALPTYNNHLYKQISNSTSGGSSNDNAYFGYSTPWGYFDFNRFHCHFSPRDWQRLINNNWGFRPKRLNFKLFNIQVKEVTDNNGVKTIANNLTSTVQVFTDSDYQLPYVLGSAHEGCLPPFPADVFMIPQYGYLTLNDGSQAVGRSSFYCLEYFPSQMLRTGNNFQFSYEFENVPFHSSYAHSQSLDRLMNPLIDQYLYYLSRTIDGAATKNQTLKFSVAGPSNMAVQGRNYIPGPSYRQQRVSTTVTQNNNSEFAWPGASSWALNGRNSLMNPGPAMASHKEGEDRFFPLSGSLIFGKQGTGRDNVDADKVMITNEEEIKTTNPVATESYGQVATNHQSAQGNNTRSVAQAQTGWVQNQGILPGMVWQDRDVYLQGPIWAKIPHTDGNFHPSPLMGGFGMKHPPPQILIKNTPVPADPPTAFNKDKLNSFITQYSTGQVSVEIEWELQKENSKRWNPEIQYTSNYYKSNNVEFAVNTEGVYSEPRPIGTRYLTRNL
notes: also called AAV-X1.1; X1B10

Legend:
[1] = biological target: T1, human interleukin 3 (IL3), expressed on …; test: cell microarray screen hit (title of Table 4)
[2] = biological target: T2, mouse LRP6-E1E2 (N-half, AA 20-628) …; test: SPR, target-Fc captured on protein A chip, AAV analyte (FIG. 14D)
[3] = biological target: T3, mouse LRP6-E3E4 (C-half, AA 629-1244) …; test: as above
[4] = biological target: T4, human LRP6 extracellular domain (AA …); test: validated interaction (cell culture potency assay and/or SPR)

Row | Binder | binding result [1] | binding result [2] | binding result [3] | binding result [4]
1 | B1 | binds | binds | no binding | binds
2 | B2 | binds | binds | no binding | binds

From US20240139329A1 (CALIFORNIA INSTITUTE OF TECHNOLOGY, published 2024)
